From the DeepSol protein solubility set

Experiment: soluble on expression in E. coli; label from the status in PepcDB or PDB records
For “SLHIQRKSTMSKCSADETPVCCCMDVGTIMDNSDCTASYSRVFANRAEAEQTLAALTEKARSVESEPCKITPTFTEESDGVRLDIDFTFACEAEMLIFQLGLR”, the “soluble on expression in E. coli” value was “soluble”.
For “MAHHHHHHMSLITTICRHPLASKRFMIVFRNEEGEELPEIFELRTRYEAIAPIAKGAYGFVCAATDNDLVENFHMSPPEEYNDPSLSKEERLDIYESHTTVAVKKLRQLFEQNRPRMWLCATREIQLMMAFKHENVMSALDFFIPLGDCERMTYESVEYLRHNFDSVYIVMKKMEYTLREVLESSVFTTTDTQDECGKLSNGKITSSAGTEKHDDGAHDDINKSTARRNERIARCPQTHLVLHPLARDYRMFILYQLLRGVGYMHLCLVIHRDIKPENIMLDRNYNTRVCDFGQGRDAVATELDGVLQTFLDNCTQWYAAPETLTLANVSSPSGFVDQKTLHAADVWSIGCIAAEMVIGRPLFYCRHSGGVGQLNAIMGVLGKIPEEAAERILQHRDEDTQKLFESVMRREMQQHLHKPSTLRRLLQSPYGDVDEEEIRLIERLLCYDPSQRITIQEALQSNYFINEGYEPVIDPDDTATHVRAVEAKEVVDAVRGRRFLWSLFLKHHPEVEELMRVLEIRRNSSSTDSTEVPPPACV”, the “soluble on expression in E. coli” value was “soluble”.
In the case of “MRKSLEIGKCVVLEVLTPRGTNLGRFMEFTEEAWKTGIDAFTVTDMPMGRVRMAPWAASHLLVESGKDVLMHFTRNTRNMIRIQSDLLGCHALGVKNLLLLSGDNPSHGDYPETTSVNDIDILDLIRLTKLMNEGTDLAGNKIYGKTDFFVGGALNPFSDKDIKRAKQKIEAGVDFLVTQPLFNSEVAKKIKEELNTKILASIVFFENAKQMSYFSSVPGIEIPDEIVNSTEKGDDYLKEKSFESVLRFVEETKGVLDGFYIVAIVKDLEKIRKVVEIAKS”, the “soluble on expression in E. coli” value is reported as “not soluble”.
For “MSLDQYGNIRAMGIHSLLYCERLFYLEEVEGILVADDRVYAGRTLHEELEPNEDFSGRIESFHYTSEKLEVSGKVDRIQKRDGDWIPYEHKRGRARIGTNGPEAWESDQCQVTVYALLLEEATGRNISEGKIRYHGSKDLVKIEIDEELRSKALKTIDRAKELSTSTNRPPVAQNENLCKNCSLAPVCLPEETRVITENEYEPIRLFPEKREGHHHHHH”, the “soluble on expression in E. coli” value was “soluble”.
With “MEDYEGKFSPSELKLKGIHTSTTFWTVGMIVQQYKNGHLVIPKIQRGYVWNEEKARRFIMSLLQGFPIPPIFIIELSGKFYVVDGQQRIRTILWFLGEDNELLEKLGPLRVPIKELAENYNEYGVTNLSEAIIKKIIFGNHPKEFNYKYFTKDFRQYFESLSIPVQHISISSGKEYILTDIFLRINQGSVKLSAMELWRVYYGKDIEEYFHKLNELARYTVAKIYEVSNGKISRQKLERFRIDEFILTFDVLINGLITPPNYIPKDAKLGAVIFSQKTTLKKVKIFVLENRRKVFKNNKGELKKFLDYLEREYKEILKMITYVLGEFTFRRPTIGNECQYALIRPSGNDINEAVFLYEVAIFKLLKDNGHSELIYENKDFIKHVILTSLIENDELFSRSTSTFRSVANKLELAKLTYKKIITKEDNITKDNLKRLLYEKFRASRVSNPVCPYCKEPISDISVADLAHIRPLAFGGQTYIHNLTLAHSTCNRRFGVRDISQYINRC” the “soluble on expression in E. coli” value was “soluble”.
With “MAHHHHHHMSSSAEEKEAKKQEELRLAGSDSEGVRAAVKAQRELKKKRDALRKVQKKIRSGGSDAEVAAAIEQEAALLAEIGHLEALRGASSAPSTAHVAAASFTSTPATAAASPGALVTVATNKSSGAKAARSGEPAKEITAEERAASAKRLHDLVQGAMDANRLKCLHVLPRDAVVHPRIAEVAVLMEQMLLVGGSARALALISAFRELSRTTTVLAVPSLNEVNTTAFEKLIQINFDFVRRKREASAGMRHVKDVLVRRFVALRDEVIHPKPNMVDLIKDL” the “soluble on expression in E. coli” value was “not soluble”.
In the case of “MGSDKIHHHHHHMVVILSERAFSRRDQTGAEVMLNRRRFLTNAATAAAATLWVSKGGMQARAEEAGNGSPWRRFEIITKVDLQPAEGPAQLWLPVVRSAGDYQKADAPLWVSNSTDIRMEKDPSSGADILRVMWEDEPRRVIEVTQHVATRDRRVTSKIAATEAELQHELRGTPSMPVDGIVKTTAMRIVEGRDRAEDRARAIYDWVIDNTFRDANIDGCGVGNARDMLETGYFGGKCADISSLFVSLARAAGLPARDVFGIRVADSADFKSLGRSGDITKAQHCRAEVYLDAHGWVPVDPADVRKVVLEENLPLDNPAVRAFREKAYGNWEMNWVGYNTARDLVLPGGELRQGFLMYPAAVTSRGELDCLNPQTFAYSITSREITA”, the “soluble on expression in E. coli” value is reported as “not soluble”.
In the case of “MILFGTGGIRGVMRKGEFDEETVKRASLSTALWLKEKGQKSVVIAYDTRKNSKEFAELAGRVFAGEGIEAYVFPEPTPTPVLSFAVRYMKTGGGVVITASHNPPEYNGYKVYTWDGVQAIPEYTNEITEIYKKVDLSHVKEGEIKFVPPEVKESYIKAVLEIVSNLPMKTDLDIAYSPLHGTGANYVPEVLKRLGFKVRLVEEQMKPDPNFSTVPTPNPEEDEALVLLNKKGATLGLATDPDCDRVGVVFKGRRLTGNQVGVLLTDFLLDHVKVENPLVIKTIVTTDMVRPICEEKGAFLEETPTGFKFIGHLIEEHTKKGDRNFVFGFEESCGYLAGNHARDKDGVVGSVLSAVAFSNYDPYEKLEELYQKYGYYMEKLINFKFEDVDRAVEIYRSLKNYDGIIDYSKGYGNVIPNETIAFVFEKSRIFVRPSGTEPKLKVYIHVRGDTREEAEELMKESESKIKEILKL”, the “soluble on expression in E. coli” value is reported as “soluble”.
With “MSLNSAIKDIEIIEMGEKLRETSSPWSSTILLVKLTSADGLVGYGEAPTTLMTLPVLESMKEVARVFKGKDFFNVEQNVFDFYRNSFYLPVSMEATSALSAFEIASWDLIGKELGTPVYKLIGGEVNHNIRAYANGWYNDCVTPDDFVKKAKEVVKMGFTAMKFDPFGDNYDTITNEGIENARNIVGALRSEFGEKVDLLIEYHGRFSKIAAIKAGMALEEFKPYFYEEPLHPDLDHDLLDLKQYYKVPIALGERVLNKKIFARFISQKLVDIIQPDLTNSGGILEAKKIAAIADGFGIPIAPHNAFGPIQTAATLNVDTTLTNFAIQESFEMFWPDWKKNLMASGYKLENGYFRLTGDAGIGKVNESIVEKYQVSGMEPFDDKEPPWVVSGTFKHYQQKEGHHHHHH” the “soluble on expression in E. coli” value was “not soluble”.
For “LQKVFDNTVVQNSDIKKFNESKLIKPNLMQEHALKSLESLRNVGEEKGLIISATGTGKTILCALDVRAYSPDKFLFIVHNEGILNRAIEEFKKVFPYEDESNFGLLTGKRKDHDAKFLFATIQTLSKKENYKLFNSNHFDYIVFDEAHRIAASSYQKIFNYFKPNFLLGMTATPERTDELNIFE”, the “soluble on expression in E. coli” value was “not soluble”.
For “MSLTITLRVLGTSVTLLESLRERAEQELGIKLVYQIHDVQTAQRIAVMQPDSYDLYDQWFHNVDFVWPARAIQPIDTRRIALWHEINDLPKRGRLRPTDQPGSGSVPSERLFVQHDGSLGSTVTERISMLPLTHNADSFAYRPERLPEGLSPADESWGWLLDSAWGGRIALQSDAAIGALDAALAVQGAGLAQFNDIGNMSIEEIDLLADVLVRKQQQGHFGAFWSDDEEAAELMLSPTIDIQSLWSPTLVRLHRAGVKYRVAVPKEGYRGWFGGLSLSRYAKGPVLDAAYAYLNWWLSGWPGAVMARQGYYIGNPARSRDHLSAAEWDYWYAGLPAREQLLGSDGLPLIDAGEIRDGGSYEERMGHIAVWNSVMNEHNYLVRRWSDILRASGKSSAKAREGHHHHHH”, the “soluble on expression in E. coli” value was “soluble”.
In the case of “MGSDKIHHHHHHMLINADFSCRAALAPEHYQWVQSPQNGVERVMLDRVGAEKARATSIVRYAPESNFPYHLHPGGEEILVLSGTFSADNSDYPAGWYLRNPPKSGHQPYSNVGAVIFVKLWQMTADETHHVAIDTKDAKNWHRQGNREVCHLFLDTSEQVSLQRIEAGEILFPETIARGAELLVIEGELIEDSMLDKGQSYKKGSWIRLPVDATSPIVAGANGATVYLKTGHLSRIIGIDVY”, the “soluble on expression in E. coli” value is reported as “not soluble”.
In the case of “MSLKCEYLIIGSGIAGYNALKELLQIKPNSRIIMITSDKYYPYDRPPLSKDYLKGKLEKDMLFFESDDFYKRDNLEVMLNKSVERIDANLKEAILNDGSVISFDKALISTGGRPRRLNIPGSENALYLRSLDDADRIREAASKGKNALIIGAGFIGVEVASSLITLGVKTTVVEVMPYIWNTFVDEKVSRVIQQYLESKGINFILNESVKEIQGKIATTSSGRKIEADMFLIAVGISPNVELAQRSGMQVDNGIVVNEYLETSARDIYAAGDIANIFDPREGKRKRIEHWNNAEYTGKLAARNMAGSREAYNFISSIWSDIFDLHIESAGETRNYDEYIIRGKFELERPRFSVIYLKGGIIKGYLAINRNVKEIIALNKLIQKQADVSSKRDKLADESFDLQKLLIEGHHHHHH”, the “soluble on expression in E. coli” value is reported as “soluble”.
With “MIVRPVTSADLPALIELARSTGTGLTTLPANEQRLQHRVSWAEKAFRGEAERGDADYLFVLEDDAGKVVGISAIAGAVGLREPWYNYRVGLTVSASQELNIHREIPTLFLANDLTGNSELCSLFLHADHRSGLNGKLLSRARFLFIAEFRHLFGDKLIAEMRGMSDEEGRSPFWESLGRHFFKMEFSQADYLTGVGNKAFIAELMPKFPLYTCFLSEEARGVIGRVHPNTEPALAMLKAEGFSYQGYVDIFDAGPAIEAETDKIRAIAESQNLVLAVGTPGDDAEPYLIHNRKREDCRITAAPARAAAGTLVVDPLTAKRLRLSAGASVRAVPLSAQKRG” the “soluble on expression in E. coli” value was “not soluble”.
With “MAHHHHHHMSPASLAKSSQDKTAPSTEGTTRFGDSSPPVAAAASPAMYGQPWNTPTTLHSLVESVTRESGEAAAARAGTSKSTVPRLAVSRSLPCSTTVVQETVTNTGRVVSTVATGAAAPSSLLTGTDTPTPLWRSTATTAAVRAEHLRELEDFLEQRGGRGTSMEGRHKVIQKALSLLPVVYPPLAKVAEPMQRYIEDVAASLRRAATEKGRSAAASGERAVRAVRSVFRREDTRAHAGEEAGRGGGKGGARCRLSPCVQERDVELMAVKEQLMQRMNTCEKTEDQFRDFRHLIASVFNTNQQLNLRIEQLEEVLARHRIDLPPASEEMMAFQTSLDGQRSFVPQASTVDGDGDDDSSSGG” the “soluble on expression in E. coli” value was “not soluble”.
With “MCASFAKFAERWNPLPETLLSWSKNNCDKVQPRPRDMSCEDVVQFVADCNFSGGGPGPGKLADTTNRQVADTFYQRTYENSPRVLPKYIYYNENTARDYGQFGNWYYPNYYPPTYLGFFDGRPASMAQLENDYKFAKGGHYPYNRADNIVNIGLQQTYLPTCLHDLFYCVRASNGQRPQAYLNYKEYRRDRDQAAEQMAQRDQDIKTLRRHRTRHHEDDE” the “soluble on expression in E. coli” value was “not soluble”.
For “MGSDKIHHHHHHMNSPAMSPNTLGIDFGTSNSAAGLAVAGRPWLVELEPGETTLPTAVFFDSDSKKMRIGRSATRALIEGEEGRFMRALKSLLGTSLLYEKRRLGGVTMDFTDVIAHFLREVKTRAETATRMEFTHALSGRPVKFHSKDETRNARAEEDLRHCYKKAGFQDVTFMYEPEAALRAARPHPGIGLVVDIGGGTSDFTCFEQDATGGTRILASHGLRLGGTDFDRQISIDHVMPHLGRGAMIRNSFGEGSLPAPNRIFNDLATWQMIPFLYGLDTRRAARDLAQNAEDPTTLNRLVQVLEDELGHDLAFATEAGKIRANGSDDAGAQIDLRLIERGLSAALPRAALEASLAQMVREIQDEAKETLRLADVAPEAVTRCVMVGGSALLMAVRAALQDLCPTAEIETERALTAVADGLALETQDGAA”, the “soluble on expression in E. coli” value was “not soluble”.
